In paper PMC3049835 (Analytical biochemistry, 2011):

Experiments:
SphK1 = SphK1 (Homo sapiens, UniProt Q9NYA1); details: read-out: Km with respect to sphingosine, SphK1, previously reported; cited from earlier work
[1] = substrate: CCCCCCCCc1ccc(CCC(N)(CO)CO)cc1; assay: 96-well FlashPlate SphK assay, SphK2; type: biochemical; details: other: FlashPlate; FTY720 as selective SphK2 substrate; 37.0 °C
[2] = substrate: CCCCCCCCCCCCC/C=C/[C@@H](O)[C@@H](N)CO; assay: 96-well FlashPlate SphK assay, SphK2; type: biochemical; details: other: FlashPlate; ATP fixed at 250 μM, sphingosine 0–50 μM; 37.0 °C
[3] = substrate: Nc1ncnc2c1ncn2[C@@H]1O[C@H](COP(=O)(O)OP(=O)(O)OP(=O)(O)O)[C@@H](O)[C@H]1O; assay: purified protein, by the assay type; details: other: FlashPlate; 5–10 μM sphingosine, ATP 0–600 μM; 37.0 °C

CCCCCCCCCCCCC/C=C/[C@@H](O)[C@@H](N)CO [sphingosine, D-erythro-sphingosine]
Km (SphK1): 5 to 17 µM

B1: SphK2 (Homo sapiens) (protein)
chain: MNGHLEAEEQQDQRPDQELTGSWGHGPRSTLVRAKAMAPPPPPLAASTPLLHGEFGSYPARGPRFALTLTSQALHIQRLRPKPEARPRGGLVPLAEVSGCCTLRSRSPSDSAAYFCIYTYPRGRRGARRRATRTFRADGAATYEENRAEAQRWATALTCLLRGLPLPGDGEITPDLLPRPPRLLLLVNPFGGRGLAWQWCKNHVLPMISEAGLSFNLIQTERQNHARELVQGLSLSEWDGIVTVSGDGLLHEVLNGLLDRPDWEEAVKMPVGILPCGSGNALAGAVNQHGGFEPALGLDLLLNCSLLLCRGGGHPLDLLSVTLASGSRCFSFLSVAWGFVSDVDIQSERFRALGSARFTLGTVLGLATLHTYRGRLSYLPATVEPASPTPAHSLPRAKSELTLTPDPAPPMAHSPLHRSVSDLPLPLPQPALASPGSPEPLPILSLNGGGPELAGDWGGAGDAPLSPDPLLSSPPGSPKAALHSPVSEGAPVIPPSSGLPLPTPDARVGASTCGPPDHLLPPLGTPLPPDWVTLEGDFVLMLAISPSHLGADLVAAPHARFDDGLVHLCWVRSGISRAALLRLFLAMERGSHFSLGCPQLGYAAARAFRLEPLTPRGVLTVDGEQVEYGPLQAQMHPGIGTLLTGPPGCPGREP
Km [1]: 22 µM
Km [2]: 6 µM
Km [3]: 79 µM

B2: SphK1 (Homo sapiens) (protein)
chain: MSAQVLGFLRSWTPLPLAAPRGPAAAGNDAGAPAATAPGGEGEPHSRPCDARLGSTDKELKAGAAATGSAPTAPGTPWQREPRVEVMDPAGGPRGVLPRPCRVLVLLNPRGGKGKALQLFRSHVQPLLAEAEISFTLMLTERRNHARELVRSEELGRWDALVVMSGDGLMHEVVNGLMERPDWETAIQKPLCSLPAGSGNALAASLNHYAGYEQVTNEDLLTNCTLLLCRRLLSPMNLLSLHTASGLRLFSVLSLAWGFIADVDLESEKYRRLGEMRFTLGTFLRLAALRTYRGRLAYLPVGRVGSKTPASPVVVQQGPVDAHLVPLEEPVPSHWTVVPDEDFVLVLALLHSHLGSEMFAAPMGRCAAGVMHLFYVRAGVSRAMLLRLFLAMEKGRHMEYECPYLVYVPVVAFRLEPKDGKGVFAVDGELMVSEAVQGQVHPNYFWMVSGCVEPPPSWKPQQMPPPEEPL
Km [3]: 125 µM
